From the supplement of paper PMC10219994
± gives the standard deviation of the averaged measurements.

B1: library; a variant is named by its letters at N, in order (parent)
chain: GAGACCGCAACTGAAAAGTTGTGGNNNNNATAGTGAGTCGCTGCCTGCAAAGACACAACT

Variants of: B1
Experiment: ligation selection enrichment (abundance after / before one-round selection) (fold); higher = more template-directed ligation activity
Details: with T7Psub CACGGAUGCUAAUACGACUCACUAUA; MgCl2 25 mM; 42 °C; 4 h; pH 8.5
Outline: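 An RNA ligase library with five randomized core positions, prepared by T7 transcription, was incubated at 0.75 μM with 6 μM RNA substrate in 50 mM EPPS pH 8.5 and 25 mM MgCl2 for 4 h at 42 °C, in two independent experiments. Ligated products were purified by PAGE, reverse transcribed, barcoded by PCR and sequenced on a MiSeq, and reads with a quality score of ≥30 at every randomized position were counted. Enrichment was calculated as abundance after ligation divided by abundance before ligation.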

Variant | ligation selection enrichment
GAGACCGCAACTGAAAAGTTGTGGCGTGAATAGTGAGTCGCTGCCTGCAAAGACACAACT | 0.58 ± 0.047
GAGACCGCAACTGAAAAGTTGTGGCGTGCATAGTGAGTCGCTGCCTGCAAAGACACAACT | 0.196 ± 0.039
GAGACCGCAACTGAAAAGTTGTGGCGTGGATAGTGAGTCGCTGCCTGCAAAGACACAACT | 0.261 ± 0.044
GAGACCGCAACTGAAAAGTTGTGGAGTACATAGTGAGTCGCTGCCTGCAAAGACACAACT | 0.492 ± 0.1
GAGACCGCAACTGAAAAGTTGTGGAGTAGATAGTGAGTCGCTGCCTGCAAAGACACAACT | 1.697 ± 0.012
GAGACCGCAACTGAAAAGTTGTGGAGTATATAGTGAGTCGCTGCCTGCAAAGACACAACT | 6.55 ± 1.2
GAGACCGCAACTGAAAAGTTGTGGAGTAAATAGTGAGTCGCTGCCTGCAAAGACACAACT | 0.427 ± 0.042
GAGACCGCAACTGAAAAGTTGTGGTGTCAATAGTGAGTCGCTGCCTGCAAAGACACAACT | 0.325 ± 0.025
GAGACCGCAACTGAAAAGTTGTGGTGTCCATAGTGAGTCGCTGCCTGCAAAGACACAACT | 0.338 ± 0.055
GAGACCGCAACTGAAAAGTTGTGGTGTCTATAGTGAGTCGCTGCCTGCAAAGACACAACT | 0.335 ± 0.099
GAGACCGCAACTGAAAAGTTGTGGTGTCGATAGTGAGTCGCTGCCTGCAAAGACACAACT | 0.653 ± 0.0083
GAGACCGCAACTGAAAAGTTGTGGTGTACATAGTGAGTCGCTGCCTGCAAAGACACAACT | 0.277 ± 0.037
GAGACCGCAACTGAAAAGTTGTGGTGTATATAGTGAGTCGCTGCCTGCAAAGACACAACT | 1.97 ± 0.21
GAGACCGCAACTGAAAAGTTGTGGTGTAAATAGTGAGTCGCTGCCTGCAAAGACACAACT | 0.267 ± 0.021
GAGACCGCAACTGAAAAGTTGTGGTGTAGATAGTGAGTCGCTGCCTGCAAAGACACAACT | 0.307 ± 0.076
GAGACCGCAACTGAAAAGTTGTGGGGTGCATAGTGAGTCGCTGCCTGCAAAGACACAACT | 0.226 ± 0.03
GAGACCGCAACTGAAAAGTTGTGGGGTGGATAGTGAGTCGCTGCCTGCAAAGACACAACT | 0.374 ± 0.12
GAGACCGCAACTGAAAAGTTGTGGGGTGAATAGTGAGTCGCTGCCTGCAAAGACACAACT | 0.641 ± 0.064
GAGACCGCAACTGAAAAGTTGTGGCGTCTATAGTGAGTCGCTGCCTGCAAAGACACAACT | 0.522 ± 0.15
GAGACCGCAACTGAAAAGTTGTGGCGTCAATAGTGAGTCGCTGCCTGCAAAGACACAACT | 0.569 ± 0.038
GAGACCGCAACTGAAAAGTTGTGGCGTCGATAGTGAGTCGCTGCCTGCAAAGACACAACT | 2.71 ± 0.46
GAGACCGCAACTGAAAAGTTGTGGCGTCCATAGTGAGTCGCTGCCTGCAAAGACACAACT | 0.192 ± 0.059
GAGACCGCAACTGAAAAGTTGTGGAGTGCATAGTGAGTCGCTGCCTGCAAAGACACAACT | 0.186 ± 0.0091

Variant | ligation selection enrichment
GAGACCGCAACTGAAAAGTTGTGGAGTGAATAGTGAGTCGCTGCCTGCAAAGACACAACT | 0.842 ± 0.093
GAGACCGCAACTGAAAAGTTGTGGAGTGGATAGTGAGTCGCTGCCTGCAAAGACACAACT | 0.414 ± 0.077
GAGACCGCAACTGAAAAGTTGTGGGGTAAATAGTGAGTCGCTGCCTGCAAAGACACAACT | 0.348 ± 0.1
GAGACCGCAACTGAAAAGTTGTGGGGTATATAGTGAGTCGCTGCCTGCAAAGACACAACT | 5.34 ± 1.2
GAGACCGCAACTGAAAAGTTGTGGGGTAGATAGTGAGTCGCTGCCTGCAAAGACACAACT | 1.05 ± 0.028
GAGACCGCAACTGAAAAGTTGTGGGGTACATAGTGAGTCGCTGCCTGCAAAGACACAACT | 0.479 ± 0.053
GAGACCGCAACTGAAAAGTTGTGGCGTAAATAGTGAGTCGCTGCCTGCAAAGACACAACT | 0.311 ± 0.023
GAGACCGCAACTGAAAAGTTGTGGCGTATATAGTGAGTCGCTGCCTGCAAAGACACAACT | 4.81 ± 0.52
GAGACCGCAACTGAAAAGTTGTGGCGTAGATAGTGAGTCGCTGCCTGCAAAGACACAACT | 0.612 ± 0.083
GAGACCGCAACTGAAAAGTTGTGGCGTACATAGTGAGTCGCTGCCTGCAAAGACACAACT | 0.447 ± 0.0085
GAGACCGCAACTGAAAAGTTGTGGTGTGCATAGTGAGTCGCTGCCTGCAAAGACACAACT | 0.151 ± 0.015
GAGACCGCAACTGAAAAGTTGTGGTGTGAATAGTGAGTCGCTGCCTGCAAAGACACAACT | 0.629 ± 0.018
GAGACCGCAACTGAAAAGTTGTGGTGTGGATAGTGAGTCGCTGCCTGCAAAGACACAACT | 0.196 ± 0.025
GAGACCGCAACTGAAAAGTTGTGGTGTGTATAGTGAGTCGCTGCCTGCAAAGACACAACT | 0.102 ± 0.061
GAGACCGCAACTGAAAAGTTGTGGGGTCCATAGTGAGTCGCTGCCTGCAAAGACACAACT | 0.277 ± 0.02
GAGACCGCAACTGAAAAGTTGTGGGGTCAATAGTGAGTCGCTGCCTGCAAAGACACAACT | 0.9187 ± 0.002
GAGACCGCAACTGAAAAGTTGTGGGGTCGATAGTGAGTCGCTGCCTGCAAAGACACAACT | 2.83 ± 0.25
GAGACCGCAACTGAAAAGTTGTGGGGTCTATAGTGAGTCGCTGCCTGCAAAGACACAACT | 0.471 ± 0.12
GAGACCGCAACTGAAAAGTTGTGGAGTCTATAGTGAGTCGCTGCCTGCAAAGACACAACT | 0.506 ± 0.043
GAGACCGCAACTGAAAAGTTGTGGAGTCCATAGTGAGTCGCTGCCTGCAAAGACACAACT | 0.157 ± 0.034
GAGACCGCAACTGAAAAGTTGTGGAGTCGATAGTGAGTCGCTGCCTGCAAAGACACAACT | 3.1 ± 0.045
GAGACCGCAACTGAAAAGTTGTGGAGTCAATAGTGAGTCGCTGCCTGCAAAGACACAACT | 0.891 ± 0.1
